Assay results: patent US20160326540A1, “Methods and Compositions Employing a Sulfonylurea-Dependent Stabilization Domain” (PIONEER HI-BRED INTERNATIONAL, INC., priority 2013, published 2016)

B1: L1-22: first round library L1 sulfonylurea repressor parental clone (protein)
chain: MGSRLDKSKVINSALELLNEVGIEGLTTRKLAQKLGVEQPTLYWHVKNKRALLDALAIEMMDRHHTHFCPLEGESWQDFLRNTAKSYRCALLSHRDGAKVCLGTAITEKQYETKENNLAFLCQQGFSLENALYARQAVRVFTLGCVLFDQEMQVAKEERETPTTDSMPPLLRQASELLDHQGAEPAFLFGLELIICGLEKQLKSESGS
modifications: Sulfonylurea responsive repressor
notes: first round library L1 sulfonylurea repressor parental clone
B2: L1-29: first round library L1 sulfonylurea repressor parental clone (protein)
chain: MGSRLDKSKVINSALELLNEVGIEGLTTRKLAQKLGVEQPTLYWHVKNKRALLDALAIEMMDRHQTHFCPLEGESWQDFLRNTAKSMRCALLSHRDGAKVWLGTRWTEKQYETPENMLAFLCQQGFSLENALYAWSAVCNFTLGCVLSDQERQVAKEERETPTTDSMPPLLRQAWELSDHQGAEPAFLFGLELIICGLEKQLKCESGS
modifications: Sulfonylurea responsive repressor
notes: as for B1
B3: L1-44: first round library L1 sulfonylurea repressor parental clone (protein)
chain: MGSRLDKSKVINSALELLNEVGIEGLTTRKLAQKLGVEQPTLYWHVKNKRALLDALAIEMLDRHATHFCPLEGESWQDFLRNNAKSYRCALLSHRDGAKVYLGTAVTEKQYETAENQLAFLCQQGFSLENALYAVKAVAGFTLGCVLWDQESQVAKEERETPTTASMPPLLRQAVELADHQGAEPAFLFGLELIICGLEKQLKCESGS
modifications: Sulfonylurea responsive repressor
notes: as for B1
B4: L6-1B03 (protein)
chain: MGSRLDKSKVINSALELLNEVGIEGLTTRKLAQKLGVEQPTLYWHVKNKRALLDALAIEMMDRHATHICPLEGESWQDFLRNNAKSMRCALLSHRDGAKVCLGTRWTEQQYEAAENMLAFLCQQGFSLENALYAVSAVRVFTLGCVLFDQESQVAKEERETPTTASMPPLLRQAWELKDHQGAEPAFLFGLELIICGLEKQLKCESGS
modifications: Sulfonylurea responsive repressor
B5: L6-2C09 (protein)
chain: MGSRLDKSKVINSALELLNEVGIEGLTTRKLAQKLGVEQPTLYWHVKNKRALLDALAIEMMDRHQTHYCPLEGESWQDFLRNTAKSMRCALLSHRDGAKVCLGTRWTEQLYETAENQLAFLCQQGFSLENALYAMSAVRVFTLGCVLFDQELQVAKEERETPTTASMPPLLRQAWELKDHQGAEPAFLFGLELIICGLEKQLKCESGS
modifications: Sulfonylurea responsive repressor
B6: L6-2D07 (protein)
chain: MGSRLDKSKVINSALELLNEVGIEGLTTRKLAQKLGVEQPTLYWHVKNKRALLDALAIEMMDRHQTHFCPLEGESWQDFLRNTAKSMRCALLSHRDGAKVCLGTRWTEQQYETAENMLAFLCQQGFSLENALYAMSAVRVFTLGCVLFDQESQVAKEERETPTTASMPPLVRQAWELKDHQGAEPAFLFGLELIICGLEKQLKCESGS
modifications: Sulfonylurea responsive repressor
B7: L6-3H02 (protein)
chain: MGSRLDKSKVINSALELLNEVGIEGLTTRKLAQKLGVEQPTLYWHVKNKRALLDALAIEMMDRHATHYCPLEGESWQDFLRNTAKSMRCALLSHRDGAKVCLGTRWTEQHYESAENMLAFLCQQGFSLENALYAVSAVRVFTLGCVLFDQESQVAKEERETPTTASMPPLVRQAWELKVHQGAEPAFLFGLELIICGLEKQLKCESGS
modifications: Sulfonylurea responsive repressor
B8: L6-4D10: library L6 clone, parent of the L8 hits (protein)
chain: MGSRLDKSKVINSALELLNEVGIEGLTTRKLAQKLGVEQPTLYWHVKNKRALLDALAIEMMDRHQTHYCPLEGESWQDFLRNNAKSMRCALLSHRDGAKVCLGTRWTEKQYESAENMLAFLCQQGFSLENALYAVSAVRVFTLGCVLFDQESQVAKEERETPTTASMPPLLRQAWELKDHQGAEPAFLFGLELIICGLEKQLKCESGS
modifications: Sulfonylurea responsive repressor
notes: library L6 clone, parent of the L8 hits
B9: L6-5F05 (protein)
chain: MGSRLDKSKVINSALELLNEVGIEGLTTRKLAQKLGVEQPTLYWHVKNKRALLDALAIEMMDRHATHICPLEGESWQDFLRNNAKSMRCALLSHRDGAKVCLGTRWTEQQYEAAENQLAFLCQQGFSLENALYAVSAVRVFTLGCVLFDQELQVAKEERETPTTASMPPLLRQAWELKDHQGAEPAFLFGLELIICGLEKQLKCESGS
modifications: Sulfonylurea responsive repressor
B10: L6-5G06 (protein)
chain: MGSRLDKSKVINSALELLNEVGIEGLTTRKLAQKLGVEQPTLYWHVKNKRALLDALAIEMMDRHQTHYCPLEGESWQDFLRNNAKSMRCALLSHRDGAKVCLGTRWTEQQYETAENQLAFLCQQGFSLENALYAVSAVRVFTLGCVLFDQELQVAKEERETPTTASMPPLLRQGWELKDHQGAEPAFLFGLELIICGLEKQLKCESGS
modifications: Sulfonylurea responsive repressor
B11: L6-5H06 (protein)
chain: MGSRLDKSKVINSALELLNEVGIEGLTTRKLAQKLGVEQPTLYWHVKNKRALLDALAIEMMDRHQTHICPLEGESWQDFLRNNAKSMRCALLSHRDGAKVCLGTRWTEKQYETAENMLAFLCQQGFSLENALYAVSAVRVFTLGCVLFDQELQVAKEERETPTTASMPPLVRQAWELKDHQGAEPAFLFGLELIICGLEKQLKCESGS
modifications: Sulfonylurea responsive repressor
B12: L6-5H12 (protein)
chain: MGSRLDKSKVINSALELLNEVGIEGLTTRKLAQKLGVEQPTLYWHVKNKRALLDALAIEMMDRHATHYCPLEGESWQDFLRNNAKSMRCALLSHRDGAKVCLGTRWTEKQYETAENQLAFLCQQGFSLENALYAMSAVRVFTLGCVLFDQELQVAKEERETPTTASMPPLVRQAWELKDHQGAEPAFLFGLELIICGLEKQLKCESGS
modifications: Sulfonylurea responsive repressor
B13: L6-6F07 (protein)
chain: MGSRLDKSKVINSALELLNEVGIEGLTTRKLAQKLGVEQPTLYWHVKNKRALLDALAIEMMDRHATHLCPLEGESWQDFLRNTAKSMRCALLSHRDGAKVCLGTRWTEQQYESAENMLAFLCQQGFSLENALYAMSAVRVFTLGCVLFDQESQVAKEERETPTTASMPPLLRQAWELKDHQGAEPAFLFGLELIICGLEKQLKCESGS
modifications: Sulfonylurea responsive repressor
B14: L8-3F01: library L8 chlorsulfuron repressor hit, parent for saturation mutagenesis and CsL3 (protein)
chain: MARLDKSKVINSALELLNEVGIEGLTTRKLAQKLGVEQPTLYWHVKNKRALLDALAIEMMDRHQTHYLPLEGESWQDFLRNNAKSCRRALLSHRDGAKVCLGTRWTEQQYETAENMLAFLTQQGFSLENALYAVSAVRVFTLGAVLFDQESQVAKEERETPTTDSMPPLLRQAWELKDHQGAEPAFLFGLELIIAGLEKQLKRESGS
modifications: Sulfonylurea responsive repressor
notes: library L8 chlorsulfuron repressor hit, parent for saturation mutagenesis and CsL3

How the values were obtained:
[1] = test system: β-gal background activity; test: First and second round library screening (L1, L2) for induction by sulfonylurea ligands; format: cell-based; settings: initial screen, library L1, data not shown
From the text: The original library was designed to thifensulfuron, but once induction activity was established with other SU compounds having potentially better soil and in planta stability properties than the original ligand, the evolution process was re-directed towards these alternative ligands. Of particular interest were herbicides metsulfuron, sulfometuron, ethametsulfuron and chlorsulfuron. For this objective, parental clones L1-9, -22, -29 and -44 were chosen for further shuffling. Clone L1-9 has strong activity on both ethametsulfuron and chlorsulfuron; clone L1-22 has strong sulfometuron activity; clone L1-29 has moderate metsulfuron activity; and clone L1-44 has moderate activity on metsulfuron, ethametsulfuron and chlorsulfuron. (Data not shown.). No clones found in the initial screen were exceptionally reactive to metsulfuron. These four clones were also chosen due to their relatively strong repressor activity, showing low β-gal background activity without inducer. Strong repressor activity is important for establishing a system which is both highly sensitive to the presence of inducer, and tightly off in the absence of inducer.
Based on the sequence information from parental clones L1-9, -22, -29 and -44, two second round libraries were designed, constructed and screened. The first library, L2, consisted of a ‘family’ shuffle whereby the amino acid diversity between the selected parental clones was varied using synthetic assembly of oligonucleotides to find clones improved in responsiveness to any of the four new target ligands.
The L2 oligonucleotides were assembled, cloned and screened as per the protocol described for library L1 except that each ligand was tested at 2 ppm to increase the stringency of the assay, which is a 10-fold reduction from 1st round library screening concentration.

E. coli KM3 = format: cell-based; settings: for Control 84 hr (colony color intensity): M9 assay plates, no inducer (background activity), 84 hr at 30° C., ImageJ colony color intensity
Procedure: Library L6 was assembled, rescued, ligated into pVER7314, transformed into E. coli KM3 and plated out onto LB carbenicillin/kanamycin, and carbenicillin only control media as before. Library plates were then picked into 42 384-well microtiter plates (˜16,000 clones) containing 60 μl LB carbenicillin (Cb) broth per well. After overnight growth at 37° C. the cultures were stamped onto M9 assay plates containing no inducer, 0.2 ppm, and 2.0 ppm chlorsulfuron as test inducer. Following incubation at 30° C. for ˜48 hrs, putative hits responding to chlorsulfuron treatment as determined by increased blue colony color were re-arrayed into six 96-well microtiter plates and used to stamp a fresh set of M9 assay plates to confirm the above results. For a more detailed analysis of the relative induction by chlorsulfuron, digital photographs were taken of the plates after various time points of incubation at 30° C. and colony color intensity measured using the digital image analysis freeware program ImageJ (Rasband, US National Institutes of Health, Bethesda, Md., USA, rsb.info.nih.gov/ij/, 1997-2007). […] From this analysis sequence-activity relationships were derived. […] Briefly, C at position 100, and Q at positions 108 and 109 strongly correlated with activation, while R at position 138, L at position 170, and A or G at position 173 were highly preferred in clones with the lowest background activity. […] This information will aid in the design of further libraries to improve responsiveness to chlorsulfuron. […]
Library CsL3 construction and screening: Based on the IVM results the top performing residue substitutions were incorporated into library CsL3 (Table 14). The library was assembled with the oligonucleotides shown below in Table 19. The first and last primers in each set were used as rescue primers. To enable purification of hit proteins, a 6×His-tag between was added to the C-terminus of the ligand binding domain of each clone during the assembly and rescue process. The library was then inserted into pVER7334 SacI/AscI, transformed into E. coli assay strain Km3 and selected on LB+40 ug/ml Kanamycin and 50 ug/ml Carbenicillin. […] Colony color was then assessed at 24 and 96 hrs of incubation at 37° C. […] Also, while the C86M substitution was less frequent in the overall hit population it occurred in all top 26 clones.
Creating novel diversity through random mutagenesis.
Construction and screening of library CsL4.2.

Molecule	Control 84 hr (colony color intensity) (E. coli KM3)	further results
B1		sulfometuron activity [1]: strong
B2		metsulfuron activity [1]: moderate
B3		activity on chlorsulfuron [1]: moderate; activity on ethametsulfuron [1]: moderate; metsulfuron activity [1]: moderate
B4	6.6	
B5	5.2	
B6	5.8	
B7	5.6	
B8	5.0	
B9	5.4	
B10	7.0	
B11	5.1	
B12	5.7	
B13	5.1	
B14		F.IND = fold induction (IND/REP) (Colony Assay Results) (E. coli KM3; CsL3 hits, 20 ppb Cs vs no inducer): 2.5
